Measurements reported in US20200339680A1 (Alector, published 2020).

Assays:
human TMEM106B [1] = target: T1, human TMEM106B (human, UniProt Q9NUM4 2-274); test: FACS U251
T1 construct: full-length, transiently expressed on HEK293 cells, or natively expressed on HeLa, U251 and A549 cells (the cell is named under assay); also the source of the Pepscan peptides; also called huTMEM106B; huTMEM
Experimental: (§1) All cells were cultured in either T75 or T150 flasks. […] The enzyme was quenched by addition of fresh media, and the cells were then distributed into 96-well plates for FACS analysis.
(§2) FACS analysis was performed as follows. Each cell type was aliquoted in 96-well round bottom plates (2×10^5 cells per well), washed once with FACS buffer (PBS+2% FBS+1 mM EDTA), and incubated with 50 μL of hybridoma supernatant or purified antibody (10 μg/ml in FACS buffer) on ice for 1 hour. […] Following this secondary incubation, the cells were again washed 2× with ice-cold FACS buffer and resuspended in a final volume of 50 μL of FACS buffer+0.25 μl/well propidium iodide (Fisher Scientific #4BDB556463). Analysis was performed on a FACSCanto system (BD Biosciences) or iQue (Intellicyt), with sort gates drawn to exclude dead (i.e., propidium iodide positive) cells.

mouse TMEM106B = target: T2, mouse TMEM106B (mouse, UniProt Q80X71 2-275); test: FACS Neuro2a;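 further: flow cytometry of antibody binding to cells: hybridoma supernatant or purified antibody at 10 µg/ml, 1 h on ice, secondary detection, propidium iodide–positive dead cells gated out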
T2 construct: transiently expressed on HEK293 cells, or native on mouse Neuro2a cells; also called moTMEM106B; murine TMEM106B
Experimental: as §1, §2

human TMEM106B [2] = target: T1, human TMEM106B; test: FACS HEK+huTMEM 0.1 ug/ml (2nd column so headed);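 further: flow cytometry binding of purified anti-TMEM106B mouse IgG to HEK293 cells transiently transfected with TMEM106B, read as median fluorescence intensity on live (propidium iodide-negative) cells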
Experimental: (§3) Purified anti-TMEM106B antibodies were evaluated for their binding affinity to various TMEM106B-expressing cell lines including HEK293 transiently transfected with human/cyno/mouse TMEM106B, as well as HeLa cells and A549 cells. Antibodies tested for this experiment were mouse IgGs purified from hybridoma supernatant. Affinity binding to cells was determined as follows. Briefly, 1×10\hat{ }5 cells were aliquoted per well in 96-well round bottom plates and incubated with 50 μL of purified anti-TMEM106B antibody at various concentrations (10× dilutions starting at 10 μg/ml) in FACS buffer (PBS+2% FBS+1 mM EDTA). […] Sorting was performed on a iQue (Intellicyt), with sort gates drawn to exclude dead (propidium iodide+) cells. Binding data was analyzed using median fluorescent intensity (MFI) and graphed in Prism. Values presented are MFI.

human TMEM106B [3] = target: T1, human TMEM106B; test: FACS A549 10 ug/ml
Experimental: as §3

human TMEM106B [4] = target: T1, human TMEM106B; test: FACS A549 1 ug/ml
Experimental: as §3

human TMEM106B [5] = target: T1, human TMEM106B; test: FACS HeLa
Experimental: as §1, §2

human TMEM106B [6] = target: T1, human TMEM106B; test: FACS HEK+huTMEM 1.0 ug/ml;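 further: binding of purified mouse IgG antibodies to HEK293 cells transiently expressing human TMEM106B, read by flow cytometry as median fluorescence intensity of live, propidium iodide-negative cells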
Experimental: as §3

human TMEM106B [7] = target: T1, human TMEM106B; test: FACS HEK+huTMEM 0.1 ug/ml;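 further: flow cytometry binding of purified mouse IgG antibodies to HEK293 cells transiently expressing TMEM106B, read as median fluorescence intensity on live cells (propidium iodide negative gating)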
Experimental: as §3

human TMEM106B [8] = target: T1, human TMEM106B; test: FACS HEK+huTMEM 10 ug/ml;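 further: flow cytometric binding of purified mouse IgG antibodies to HEK293 cells transiently expressing human TMEM106B, read as median fluorescence intensity on live cells with propidium iodide-positive cells excluded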
Experimental: as §3

human TMEM106B [9] = target: T1, human TMEM106B; test: FACS A549;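 further: flow cytometry of cells incubated on ice for 1 h with hybridoma supernatant or purified antibody at 10 µg/mL, dead propidium iodide-positive cells gated out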

Binder	MFI (human TMEM106B [1])	MFI (mouse TMEM106B)	MFI (human TMEM106B [2])	MFI (human TMEM106B [3])	MFI (human TMEM106B [4])	MFI (human TMEM106B [5])	MFI (human TMEM106B [6])	MFI (human TMEM106B [7])	MFI (human TMEM106B [8])	MFI (human TMEM106B [9])
TM-42 (antibody, V domains shown) VH: QVQLQQSGAELAKPGASVKLSCKASGYTFTNYWMHWVKKRPGQGLEWIGYINPSSGYTKYNQKFKDKATLTADKSSNTAYMQLSSLTYEDSAVYYCTREGGSISDWYFDVWGTGTTVTVSS VL: DIVMTQAAPSLPVTPGESVSISCRSSKSLLHSNGNTYLYWFLQRPGQSPQLLIYRMSNLASGVPDRFSGSGSGTAFTLRISRVEAEDVGVYYCMQHLEYPYTFGGGTKLEIK	326 MFI	237 MFI	2070 MFI	3300 MFI	1780 MFI	215 MFI	58100 MFI	16700 MFI	60100 MFI	947 MFI
TM-45 (antibody, V domains shown) VH: QVQLQQSGAELAKPGASVKLSCKASGYTFTNYWMHWVKKRPGQGLEWIGYINPSSGYTKYNQKFKDKATLTADKSSNTAYMQLSSLTYEDSAVYYCTREGGSISDWYFDVWGTGTTVTVSS VL: DIVMTQAAPSLPVTPGESVSISCRSSKSLLHSNGNTYLYWFLQRPGQSPQLLIYRMSNLASGVPDRFSGSGSGTAFTLRISRVEAEDVGVYYCMQHLEYPYTFGGGTKLEIK	517 MFI	187 MFI	2500 MFI	3240 MFI	1860 MFI	191 MFI	57600 MFI	21300 MFI	58100 MFI	819 MFI
TM-37 (antibody, V domains shown) VH: QVQLQQSGAELAKPGASVKLSCKASGYTFTSYWMHWVKQRPGQGLEWIGYVNPSSGYTKNNQKFKDKVTLTADKSSSTAYMQLSSLTYEDSAVYYCAREGGSISDWYFDVWGTGTTVTVSS VL: DIVMTQAAPSVPVTPGESVSISCRSSKSLLHSNGNTYSYWFLQRPGQSPQLLIYRMSNLASGVPDRFSGSGSGTAFTLRISRVEAEDVGVYYCMQHLEYPYTFGGGTKLEIK	408 MFI	208 MFI	3920 MFI	4210 MFI	2980 MFI	254 MFI	58700 MFI	29400 MFI	50500 MFI	1040 MFI
TM-44 (antibody, V domains shown, mouse IgG (hybridoma)) VH: EVQLVESGGGLVKPGGSLKLSCAASGFTFSDYGMHWVRQAPEKGLEWVAYISSGSSTIYYADTVKGRFTISRDNAKNTLFLQMTSLRSEDTAMYYCARNYGSPYAMDYWGQGTSVTVSS VL: not shown	522 MFI	202 MFI	300 MFI	466 MFI	404 MFI	168 MFI	337 MFI	309 MFI	512 MFI	392 MFI
TM-28 (antibody, V domains shown) VH: EVQLQQSGPVLVKPGPSVKISCMASVFTFNDYYIHWVKQSHGKSLEWIGLVYPYNGGTNYNQNFKGKATLTVDTSSRTAYMELNSLTSEDSAVYYCARSYFSNPIGYWGQGTLVTVSE VL: DIVMTQSPSSLSVSVGEKVTVSCKSSQSLLNSGNQKNYLAWYQQKPGQPPKLLIYGASTRESGVPDRFTGSGSGTDFTLTISSVQAEDLAVYYCQNDHSYPLTFGAGTKLELK	998 MFI	2740 MFI	3340 MFI	4350 MFI	2630 MFI	2790 MFI	66400 MFI	19800 MFI	64800 MFI	2000 MFI
TM-27 (antibody, V domains shown) VH: QVQLQQSGAELVRPGTSVKVSCKASGYALTNYLIEWVKQRPGQGLEWIGVINPGSGSTKYNEKFKGKATLTADKSSSTAYMQLSSLTSEDSAVYFCARIIYDHDWYFDVWGTGTTVTVSS VL: QIVLTQSPAIMSASPGEKVTISCSASSSISYMYWYQQKPGSSPKPWIYRTSTLASGVPARFSGSGSGTSYSLTISSMEAEDAATYYCQQYHSYPRTFGGGTKLEIK	1320 MFI	1580 MFI	744 MFI	622 MFI	431 MFI	2960 MFI	3040 MFI	1700 MFI	4140 MFI	1930 MFI
TM-49 (antibody, V domains shown, mouse IgG (hybridoma)) VH: QVQLQQPGAELVRPGSSVKLSCKASGYTFTRFWMHWVKQRPIQGLEWIGNIDPSDSQTHYNQKFKDKATLTVDKSSSTAYMQLSSLTSEDSAVYYCARLITVDYAMDYWGQGTSVTVSS VL: QIVLTQSPAIMSASPGEKVTISCSASSSVSYMYWYQQKPGSSPKPWIHRTSNLASGVPVRFSGSGSGTSYSLTISSMEAEDAATYYCQQYHSYPPTFGAGTKLELK	434 MFI	291 MFI	756 MFI	613 MFI	473 MFI	187 MFI	15700 MFI	3030 MFI	16500 MFI	924 MFI
TM-50 (antibody, V domains shown, mouse IgG (hybridoma)) VH: QVQLKESGPVLVAPSQSLSITCTVSGFSLTNYGVHWVRQPPGKGLEWLGVIWAGGNTNYNSALMSRLSISKDNSKSQVFLKMNSLQTDDTAMYYCAKEAKLLRSYAMDYWGQGTLVTVSA VL: DVQMTQTTSSLSASLGDRVTISCRASQDINNYLYWYQQKPDGTVKLLIYYTSMLHSGVPSRFSGSGSGTDYSLTISNLEQEDIATYFCQQGSTLMYTFGGGTKLEIK	260 MFI	257 MFI	294 MFI	445 MFI	381 MFI	159 MFI	314 MFI	305 MFI	396 MFI	580 MFI
TM-33 (antibody, V domains shown, mouse IgG (hybridoma)) VH: EFQLQQSGPELVKPGASVKISCKASGYSFTDYNMNWVKQSNGKSLEWIGVINPNYGTTSYNQKFKGKATLTVDQSSSTAYMQLNSLTSEDSAVYYCASSYWGQGTLVTVSA VL: DIVMTQSQKFMSTTVGDRVSITCKASQNVGTAVAWYQQKPGQSPKLLIYSASNRYTGVPDRFTGSGSGTDFTLTISNMQSEDLADYFCQQYSSYPYTFGGGTKLEIK	202 MFI	233 MFI	651 MFI	514 MFI	366 MFI	148 MFI	5630 MFI	1750 MFI	12100 MFI	298 MFI
TM-35 (antibody, V domains shown) VH: QVQLQQSGPELVRPGTSVKISCKAPGYTFTRHWMQWVRQRPGQGLEWIGEILPGSNNIYYNEKVKGKATLTVDTSSSTSYMQLSSLTSEDSAVYFCARSLYDYDGVFAYWGQGTLVTVSA VL: DVLMTQIPLSLPVSLGDQASISCRSSQSIVHRNGNTYLEWYLQKPGQSPKLLIYKVSNRFSGVPDRFSGSGSGTDFTLKISRVEAEDLGVYYCFQGSHVPYTFGGGTKLEIK	370 MFI	181 MFI	4080 MFI	4200 MFI	3270 MFI	241 MFI	55400 MFI	22600 MFI	48700 MFI	982 MFI
TM-48 (antibody, V domains shown) VH: QVQLQQSGPELVKPGASVKLSCKASGYTFTSYDINWVKQRPGQGLEWIGWIYPRDGNTQYIEKLKGKATLTVDTSSSTAYMELHSLTSEDSAVYFCARWIFYAMDYWGQGTSVTVSS VL: DVLMTQTPLSLPVSLGNQASISCRSSQSIVHGNGNTYLEWYLQKPGQSPKLLIYKVSNRFSGVPDRFSGSGSGTDFTLKISRVEAEDLGVYYCFQGSHLPYTFGGGTKLEIK	346 MFI	292 MFI	4050 MFI	2450 MFI	1580 MFI	219 MFI	39900 MFI	21600 MFI	38200 MFI	677 MFI
TM-29 (antibody, V domains shown) VH: QVQLRQSGAELVRPGASVKLSCKASGYTFTDYYINWVKQRPGQGLEWIARIYPGSGYTYYNEKFKGKATLTAEGSSNTAYMQLSSLTSEDSAVYFCANHYTNPFAYWGQGTLVTVSA VL: DIVMTQAAFSNPVTLGTSASISCRSSKSLLHYNGITYLYWYLQKPGQSPQLLIYQMSNLASGVPDRFSSSGSGTDFTLRISRVEAEDVGVYYCAQNLELPYTFGGGTKLEIK	730 MFI	1480 MFI	4050 MFI	4200 MFI	2480 MFI	1650 MFI	63300 MFI	24400 MFI	61200 MFI	1410 MFI
TM-52 (antibody, V domains shown, mouse IgG (hybridoma)) VH: QVQLQQPGAELVKPGASVKLSCKASGYTFTNYWMHWVKQRPGQGLDWIGNIDPSDSETHYNQKFKDKATLTVDKVSSTAYMQLSSLTSEDSAVYYCARRGYYGRSPFAYWGQGTLVTVSA VL: ENVLTQSPAIMSASPGEKVTMTCSASSSVSYMHWYQQKSNTSPKLWIYDTSKLASGVPGRFSGSGSGNSYSLTISSAEAEDVATYYCFQGSGYPLTFGAGTKLELK	341 MFI	210 MFI	451 MFI	443 MFI	401 MFI	227 MFI	8200 MFI	1940 MFI	7020 MFI	987 MFI
